Data: patent publication US10287362
Positions count from the first letter of the chain named. Like-named read-outs stand apart in the source and are kept apart here.

Key:
human CD73 ECD [1] = target: T1, human CD73 ECD (human, UniProt P21589); assay: SPR
T1 chain: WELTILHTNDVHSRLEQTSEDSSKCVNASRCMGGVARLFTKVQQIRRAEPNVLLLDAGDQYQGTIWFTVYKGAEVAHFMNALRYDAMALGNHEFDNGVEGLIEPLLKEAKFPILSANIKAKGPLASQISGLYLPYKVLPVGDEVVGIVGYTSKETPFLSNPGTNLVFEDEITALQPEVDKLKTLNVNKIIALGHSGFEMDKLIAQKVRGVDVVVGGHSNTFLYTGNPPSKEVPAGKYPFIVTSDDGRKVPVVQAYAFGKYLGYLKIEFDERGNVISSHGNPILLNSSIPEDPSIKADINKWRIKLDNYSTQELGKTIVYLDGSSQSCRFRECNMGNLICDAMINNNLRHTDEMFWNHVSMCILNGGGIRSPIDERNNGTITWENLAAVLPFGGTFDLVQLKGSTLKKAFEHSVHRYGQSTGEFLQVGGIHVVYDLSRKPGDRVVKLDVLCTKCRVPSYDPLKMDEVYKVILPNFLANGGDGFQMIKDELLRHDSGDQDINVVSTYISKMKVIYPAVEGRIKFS

CD73 K180A+N185G = target: T2, CD73 K180A+N185G (human, UniProt P21589); assay: SPR, bivalent
T2 chain: T1 chain with K180A, N185G

CD73 V144K+K180A = target: T3, CD73 V144K+K180A (human, UniProt P21589); assay: SPR, bivalent
T3 chain: T1 chain with V144K, K180A

CD73 K180A = target: T4, CD73 K180A (human, UniProt P21589); assay: SPR, bivalent
T4 chain: T1 chain with K180A

human CD73 ECD [2] = target: T1, human CD73 ECD; assay: SPR
murine CD73 on 4T1 cells [3] = target: T5, murine CD73 on 4T1 cells (mouse, UniProt Q61503); assay: FACS
T5 chain: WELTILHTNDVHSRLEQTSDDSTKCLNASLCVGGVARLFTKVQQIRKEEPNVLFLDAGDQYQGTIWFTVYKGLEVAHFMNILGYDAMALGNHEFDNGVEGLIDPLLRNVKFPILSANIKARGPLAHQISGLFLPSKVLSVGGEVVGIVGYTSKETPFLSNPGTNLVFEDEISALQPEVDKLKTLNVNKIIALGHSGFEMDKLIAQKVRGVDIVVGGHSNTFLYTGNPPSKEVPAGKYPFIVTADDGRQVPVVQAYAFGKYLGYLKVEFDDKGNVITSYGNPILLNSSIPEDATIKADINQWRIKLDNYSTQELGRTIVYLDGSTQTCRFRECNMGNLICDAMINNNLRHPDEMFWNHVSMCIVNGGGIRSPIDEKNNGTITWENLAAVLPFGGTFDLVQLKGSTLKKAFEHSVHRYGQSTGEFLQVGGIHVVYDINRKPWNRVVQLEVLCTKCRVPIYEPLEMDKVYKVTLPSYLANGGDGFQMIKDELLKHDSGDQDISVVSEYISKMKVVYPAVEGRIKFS

CD73 V144K = target: T6, CD73 V144K (human, UniProt P21589); assay: SPR, bivalent
T6 chain: T1 chain with V144K

[4] = target: T7, human CD73 on MDA-MB-231 cells (human, UniProt P21589); assay: FACS
T7 chain: T1 chain

murine CD73 on 4T1 cells [5] = target: T5, murine CD73 on 4T1 cells; assay: FACS
murine CD73 ECD [6] = target: T8, murine CD73 ECD (mouse, UniProt Q61503); assay: SPR
T8 chain: T5 chain

CD73 V144K+N185G = target: T9, CD73 V144K+N185G (human, UniProt P21589); assay: SPR, bivalent
T9 chain: T1 chain with V144K, N185G

[7] = target: T7, human CD73 on MDA-MB-231 cells; assay: FACS
human CD73 ECD [8] = target: T1, human CD73 ECD; assay: SPR, bivalent
CD73 N185G = target: T10, CD73 N185G (human, UniProt P21589); assay: SPR, bivalent
T10 chain: T1 chain with N185G

murine CD73 ECD [9] = target: T8, murine CD73 ECD; assay: SPR
human CD73 ECD [10] = target: T1, human CD73 ECD

B1: MEDI9447 (73combo3, clone 10.3) (antibody, V domains shown)
VH: EVQLLESGGGLVQPGGSLRLSCAASGFTFSSYAYSWVRQAPGKGLEWVSAISGSGGRTYYADSVKGRFTISRDNSKNTLYLQMNSLRAEDTAVYYCARLGYGRVDEWGRGTLVTVSS
VL: QSVLTQPPSASGTPGQRVTISCSGSLSNIGRNPVNWYQQLPGTAPKLLIYLDNLRLSGVPDRFSGSKSGTSASLAISGLQSEDEADYYCATWDDSHPGWTFGGGTKLTVL
Kd (human CD73 ECD [1]): 0.004 nM | binding result (CD73 K180A+N185G): no binding | Kd (CD73 V144K+K180A): 2.68 nM | Kd (CD73 K180A): 0.0435 nM | Kd (human CD73 ECD [2]): 0.0041 nM | Kd (murine CD73 on 4T1 cells [3]): 0.113 nM | Kd (CD73 V144K): 0.0814 nM | Kd [4]: 0.154 nM | Kd (murine CD73 on 4T1 cells [5]): 0.113 nM | Kd (murine CD73 ECD [6]): 0.001 nM | binding result (CD73 V144K+N185G): no binding | Kd [7]: 0.154 nM | Kd (human CD73 ECD [8]): 0.0042 nM | Kd (CD73 N185G): 0.0269 nM | Kd (murine CD73 ECD [9]): 0.0009 nM

B2: MEDI9447 Fab (antibody, V domains shown)
VH: B1 VH
VL: B1 VL
Kd (human CD73 ECD [10]): 0.327 nM
